From patent US20240401063, “Aptamer for DKK1 and Use Thereof” (APTACURE THERAPEUTICS LIMITED, published 2024)

Assays:
Conditions in all cases: tags: His6; label: biotin
[1] = target: T1, DKK1 (Dickkopf-1), full-length (Homo sapiens, UniProt O94907 SEQ:32-266); experiment: ELONA; not significantly above blank at 1 uM; used as negative control
T1 sequence: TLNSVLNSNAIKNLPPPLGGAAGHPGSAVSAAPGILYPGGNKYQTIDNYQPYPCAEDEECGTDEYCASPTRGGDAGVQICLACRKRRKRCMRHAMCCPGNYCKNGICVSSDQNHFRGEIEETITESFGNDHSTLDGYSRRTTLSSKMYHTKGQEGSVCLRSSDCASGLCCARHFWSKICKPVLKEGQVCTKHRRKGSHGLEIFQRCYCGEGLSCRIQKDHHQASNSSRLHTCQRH
Protocol: (§1) Enzyme linked oligonucleotide assay (ELONA): 160 ng DKK1 per well and negative target were coated in a 96-well microtiter plate by incubating at 4° C. overnight through hydrophobic interaction. Non-binding sites in wells were blocked with bull serum albumin (BSA) at room temperature for 1 hour, and then washed with DNA-binding buffer 4 times for 5 minutes each. The biotinylated aptamer candidates/RS with an appropriate concentration were added to each well and incubated at room temperature for 45 minutes with continuous gentle shaking. After binding, the plate was washed with washing buffer 4 times for 5 minutes each to remove non-specific and weakly binding sequences. 100 μl streptavidin-horseradish peroxidase (HRP) (1:10000 dilute into PBST+0.1% BSA) was added to each well, and incubated for 30 minutes, and washed for 4 times with the binding buffer. 50 μl 3,3′,5,5′-tetramethylbenzidine (TMB) as a HRP substrate was added to each well and incubated for 20 minutes. […] The absorbance at 450 nm was measured with a microplate reader (Molecular Device i3x). Data was analyzed with Origin software. A binding curve was generated and KD was calculated with a non-linear curve fitting model logistic.
The specificity of 1 μM of each adapter/RS against DKK-1 was determined for 20 potential sequences with the highest occurrence rate (Table 4) by ELONA and the absorbance at 450 nm was detected.

[2] = target: T1, DKK1 (Dickkopf-1), full-length; experiment: ELONA; highest affinity of the four truncations; Kd only in FIG. 9
Protocol: Enzyme linked oligonucleotide assay (ELONA): 160 ng DKK1 per well and negative target were coated in a 96-well microtiter plate by incubating at 4° C. overnight through hydrophobic interaction. Non-binding sites in wells were blocked with bull serum albumin (BSA) at room temperature for 1 hour, and then washed with DNA-binding buffer 4 times for 5 minutes each. The biotinylated aptamer candidates/RS with an appropriate concentration were added to each well and incubated at room temperature for 45 minutes with continuous gentle shaking. After binding, the plate was washed with washing buffer 4 times for 5 minutes each to remove non-specific and weakly binding sequences. 100 μl streptavidin-horseradish peroxidase (HRP) (1:10000 dilute into PBST+0.1% BSA) was added to each well, and incubated for 30 minutes, and washed for 4 times with the binding buffer. 50 μl 3,3′,5,5′-tetramethylbenzidine (TMB) as a HRP substrate was added to each well and incubated for 20 minutes. 50 μl 2M H₂SO₄ was added to terminate the reaction. The absorbance at 450 nm was measured with a microplate reader (Molecular Device i3x). Data was analyzed with Origin software. A binding curve was generated and KD was calculated with a non-linear curve fitting model logistic. […]

[3] = target: T1, DKK1 (Dickkopf-1), full-length; experiment: ELONA; 100 nM and 1 nM: no or slight difference from aptdkk5
Protocol: as §1, with “sequences.” for “sequences. 100 μl streptavidin-horseradish peroxidase (HRP) (1:10000 dilute into PBST+0.1% BSA) was added to each well, and incubated for 30 minutes, and washed for 4 times with the binding buffer. 50 μl 3,3′,5,5′-tetramethylbenzidine (TMB) as a HRP substrate was added to each well and incubated for 20 minutes.”
The specificity of 100 nM/i nM of each aptamer/RS against DKK-1 was determined for 24 truncated sequences of aptdkk5 and original aptdkk5 (Table 6) by ELONA and the absorbance at 450 nm was detected. When the concentration was 100 nM, there was no significant difference or slight difference in the absorbance between apt5-1-38, apt5-1-35, apt5-1-62, or apt5-1-59 and the original aptdkk5 (FIG. 8a). […]

B1: Aptdkk-3 (ssDNA)
DNA: CGTACGGTCGACGCTAGCTAACTGTCCGACGCGTCTTTCACTTTCTCCCGCCGGGATCCGAGCTCCACGTG
**Q.** Does B1 bind [1]?
**A.** Result: no binding

**Q.** Does CGTACGGTCGACGCTAGCTGGTGGTTGGGGTGGGTGGT (ssDNA) [Apt5-1-38 (Aptdkk5s)] bind [2]?
**A.** Result: binds

B2: Apt5-1-59 (ssDNA)
DNA: CGTACGGTCGACGCTAGCTGGTGGTTGGGGTGGGTGGTGGTTGTTCGTGGCCGCGTACG
**Q.** Does B2 bind [3]?
**A.** Result: binds
